The experiment has as its target IGF1 receptor (IGF1R) (UniProt P08069). As to the kind of experiment: method not stated; in the absence of glucose.

From US20240343773A1 come the findings set out here.

Ends that are not written are not given here.

B1: SEQ ID NO: 5 (ligand)
chain: FVDQHLCGSHLVEALYLVCGERGFFYTPKTYDGKGIVEQCCTSICSLYQLENYCG
modifications: ends and bridges not checked; cysteine pairing not given here
For orientation: Kd means the constant that tells how readily two partners part at equilibrium. A high value points to lower affinity. As to B1, the Kd turned out to be 30.4 nM.

B2: SEQ ID NO: 7 (ligand)
chain: FVGQHLCGSHLVEALYLVCGERGFFYTPKTYDGKGIVEQCCTSICSLYQLENYCG
modifications: ends and bridges not checked; cysteine pairing not given here
B2 displayed a Kd of 26.8 nM.
